Consider ten molecules from US20120329707A1 (INDIANA UNIVERSITY RESEARCH AND TECHNOLOGY, published 2012).

What all share (experiment): cell-based or functional assay
In one assay the target is glucagon receptor.
Another assay addresses GLP-1 receptor.
For the next assay, the target named is T1, GIP receptor.
T1 sequence (P48546 whole entry, species assumed, looked up): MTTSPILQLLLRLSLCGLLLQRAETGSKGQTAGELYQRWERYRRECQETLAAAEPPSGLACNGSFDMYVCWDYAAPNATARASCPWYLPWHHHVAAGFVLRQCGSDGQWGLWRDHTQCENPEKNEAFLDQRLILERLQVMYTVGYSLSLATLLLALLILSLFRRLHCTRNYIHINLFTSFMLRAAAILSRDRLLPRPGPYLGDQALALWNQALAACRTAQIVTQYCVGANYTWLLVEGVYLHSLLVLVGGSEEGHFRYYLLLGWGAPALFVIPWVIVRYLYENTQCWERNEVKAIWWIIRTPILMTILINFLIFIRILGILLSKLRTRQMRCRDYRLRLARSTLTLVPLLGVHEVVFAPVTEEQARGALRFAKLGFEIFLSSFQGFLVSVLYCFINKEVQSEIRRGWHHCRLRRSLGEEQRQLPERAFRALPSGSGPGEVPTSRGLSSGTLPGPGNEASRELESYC

Numbered stars: 1 amine (or outer) side, 2 acyl side, 3 side chain; on linkers, the order of the positions; unused ones are H or OH. Square brackets hold non-standard residues; d marks the D form. Primed or numbered codes have the meaning given here. Side chains are listed from the residue outwards. Ends that are not written are not given here. * marks the point of attachment. 40K‑TE PEG″ = 40 kDa PEG bound to Cys via thioether made from an iodoacetyl-functionalised PEG; γGlu = O=C(O)[C@H](CCC(=O)[*:2])N[*:1]; Palmitoyl = CCCCCCCCCCCCCCCC(=O)*; Orn = NCCC[C@H](N)C(=O)O; Aib = CC(C)(N)C(=O)O

B1: peptide of SEQ ID NO: 30 (peptide)
peptide: H[Aib]QGTFTSDK([γGlu-Palmitoyl])SKYLD[Aib]RAAQDFVQWLLDGRG-NH2
modifications: N-terminus assumed
SMILES: CCCCCCCCCCCCCCCC(=O)N[C@@H](CCC(=O)NCCCC[C@H](NC(=O)[C@H](CC(=O)O)NC(=O)[C@H](CO)NC(=O)[C@@H](NC(=O)[C@H](Cc1ccccc1)NC(=O)[C@@H](NC(=O)CNC(=O)[C@H](CCC(N)=O)NC(=O)C(C)(C)NC(=O)[C@@H](N)Cc1c[nH]cn1)[C@@H](C)O)[C@@H](C)O)C(=O)N[C@@H](CO)C(=O)N[C@@H](CCCCN)C(=O)N[C@@H](Cc1ccc(O)cc1)C(=O)N[C@@H](CC(C)C)C(=O)N[C@@H](CC(=O)O)C(=O)NC(C)(C)C(=O)N[C@@H](CCCNC(=N)N)C(=O)N[C@@H](C)C(=O)N[C@@H](C)C(=O)N[C@@H](CCC(N)=O)C(=O)N[C@@H](CC(=O)O)C(=O)N[C@@H](Cc1ccccc1)C(=O)N[C@H](C(=O)N[C@@H](CCC(N)=O)C(=O)N[C@@H](Cc1c[nH]c2ccccc12)C(=O)N[C@@H](CC(C)C)C(=O)N[C@@H](CC(C)C)C(=O)N[C@@H](CC(=O)O)C(=O)NCC(=O)N[C@@H](CCCNC(=N)N)C(=O)NCC(N)=O)C(C)C)C(=O)O
B1: the “EC50 (nM) at glucagon receptor” value with glucagon receptor stood at 0.933 nM. Also, the “EC50 (nM) at GLP-1 receptor” value with GLP-1 receptor is 0.0082 nM. For the same molecule, the “EC50 (nM) at GIP receptor” value in the assay with GIP receptor was 9.06 nM.

B2: peptide of SEQ ID NO: 26 (peptide)
peptide: H[Aib]QGTFTSDK([γGlu-γGlu-Palmitoyl])SKYLD[Aib]RAAQDFVQWLK[Aib]GRG-NH2
modifications: N-terminus assumed
SMILES: CCCCCCCCCCCCCCCC(=O)N[C@@H](CCC(=O)N[C@@H](CCC(=O)NCCCC[C@H](NC(=O)[C@H](CC(=O)O)NC(=O)[C@H](CO)NC(=O)[C@@H](NC(=O)[C@H](Cc1ccccc1)NC(=O)[C@@H](NC(=O)CNC(=O)[C@H](CCC(N)=O)NC(=O)C(C)(C)NC(=O)[C@@H](N)Cc1c[nH]cn1)[C@@H](C)O)[C@@H](C)O)C(=O)N[C@@H](CO)C(=O)N[C@@H](CCCCN)C(=O)N[C@@H](Cc1ccc(O)cc1)C(=O)N[C@@H](CC(C)C)C(=O)N[C@@H](CC(=O)O)C(=O)NC(C)(C)C(=O)N[C@@H](CCCNC(=N)N)C(=O)N[C@@H](C)C(=O)N[C@@H](C)C(=O)N[C@@H](CCC(N)=O)C(=O)N[C@@H](CC(=O)O)C(=O)N[C@@H](Cc1ccccc1)C(=O)N[C@H](C(=O)N[C@@H](CCC(N)=O)C(=O)N[C@@H](Cc1c[nH]c2ccccc12)C(=O)N[C@@H](CC(C)C)C(=O)N[C@@H](CCCCN)C(=O)NC(C)(C)C(=O)NCC(=O)N[C@@H](CCCNC(=N)N)C(=O)NCC(N)=O)C(C)C)C(=O)O)C(=O)O
As to B2, the “EC50 (nM) at glucagon receptor” value in the assay with glucagon receptor came out at 0.106 nM. The “EC50 (nM) at GLP-1 receptor” value with GLP-1 receptor was determined as 0.004 nM. Further, in the assay with GIP receptor, the “EC50 (nM) at GIP receptor” value worked out at 3.29 nM.
For the molecule H[Aib]QGTFTSDK([γGlu-γGlu-Palmitoyl])SKYLD[Aib]RAAQDFVQWLMDTK[dA]-OH [peptide of SEQ ID NO: 32], the “EC50 (nM) at glucagon receptor” value with glucagon receptor stood at 0.007 nM. The “EC50 (nM) at GLP-1 receptor” value with GLP-1 receptor was 0.008 nM. For the same molecule, in the assay with GIP receptor, the “EC50 (nM) at GIP receptor” value is 2.08 nM.
For H[dS]QGTFTSDK([γGlu-Palmitoyl])SKYLDERAAQDFVQWLLKGRG-NH2 [peptide of SEQ ID NO: 27], in the assay with glucagon receptor, the “EC50 (nM) at glucagon receptor” value turned out to be 0.022 nM. The “EC50 (nM) at GLP-1 receptor” value with GLP-1 receptor was 0.005 nM. The “EC50 (nM) at GIP receptor” value with GIP receptor came to 2.12 nM.

B3: peptide of SEQ ID NO: 31 (peptide)
peptide: H[Aib]QGTFTSDK([γGlu-γGlu-Palmitoyl])SKYLD[Aib]RAAQDFVQWLMKGRG-OH
modifications: N-terminus assumed
SMILES: CCCCCCCCCCCCCCCC(=O)N[C@@H](CCC(=O)N[C@@H](CCC(=O)NCCCC[C@H](NC(=O)[C@H](CC(=O)O)NC(=O)[C@H](CO)NC(=O)[C@@H](NC(=O)[C@H](Cc1ccccc1)NC(=O)[C@@H](NC(=O)CNC(=O)[C@H](CCC(N)=O)NC(=O)C(C)(C)NC(=O)[C@@H](N)Cc1c[nH]cn1)[C@@H](C)O)[C@@H](C)O)C(=O)N[C@@H](CO)C(=O)N[C@@H](CCCCN)C(=O)N[C@@H](Cc1ccc(O)cc1)C(=O)N[C@@H](CC(C)C)C(=O)N[C@@H](CC(=O)O)C(=O)NC(C)(C)C(=O)N[C@@H](CCCNC(=N)N)C(=O)N[C@@H](C)C(=O)N[C@@H](C)C(=O)N[C@@H](CCC(N)=O)C(=O)N[C@@H](CC(=O)O)C(=O)N[C@@H](Cc1ccccc1)C(=O)N[C@H](C(=O)N[C@@H](CCC(N)=O)C(=O)N[C@@H](Cc1c[nH]c2ccccc12)C(=O)N[C@@H](CC(C)C)C(=O)N[C@@H](CCSC)C(=O)N[C@@H](CCCCN)C(=O)NCC(=O)N[C@@H](CCCNC(=N)N)C(=O)NCC(=O)O)C(C)C)C(=O)O)C(=O)O
Turning to B3, the “EC50 (nM) at glucagon receptor” value with glucagon receptor worked out at 0.016 nM. Further, the “EC50 (nM) at GLP-1 receptor” value with GLP-1 receptor was found to be 0.007 nM. Also, in the assay with GIP receptor, the “EC50 (nM) at GIP receptor” value is 2.34 nM.

B4: peptide of SEQ ID NO: 25 (peptide)
peptide: H[Aib]QGTFTSDK([γGlu-γGlu-Palmitoyl])SKYLD[Aib]RAAQDFVQWLKDGRP-NH2
modifications: N-terminus assumed
SMILES: CCCCCCCCCCCCCCCC(=O)N[C@@H](CCC(=O)N[C@@H](CCC(=O)NCCCC[C@H](NC(=O)[C@H](CC(=O)O)NC(=O)[C@H](CO)NC(=O)[C@@H](NC(=O)[C@H](Cc1ccccc1)NC(=O)[C@@H](NC(=O)CNC(=O)[C@H](CCC(N)=O)NC(=O)C(C)(C)NC(=O)[C@@H](N)Cc1c[nH]cn1)[C@@H](C)O)[C@@H](C)O)C(=O)N[C@@H](CO)C(=O)N[C@@H](CCCCN)C(=O)N[C@@H](Cc1ccc(O)cc1)C(=O)N[C@@H](CC(C)C)C(=O)N[C@@H](CC(=O)O)C(=O)NC(C)(C)C(=O)N[C@@H](CCCNC(=N)N)C(=O)N[C@@H](C)C(=O)N[C@@H](C)C(=O)N[C@@H](CCC(N)=O)C(=O)N[C@@H](CC(=O)O)C(=O)N[C@@H](Cc1ccccc1)C(=O)N[C@H](C(=O)N[C@@H](CCC(N)=O)C(=O)N[C@@H](Cc1c[nH]c2ccccc12)C(=O)N[C@@H](CC(C)C)C(=O)N[C@@H](CCCCN)C(=O)N[C@@H](CC(=O)O)C(=O)NCC(=O)N[C@@H](CCCNC(=N)N)C(=O)N1CCC[C@H]1C(N)=O)C(C)C)C(=O)O)C(=O)O
For the molecule B4, the “EC50 (nM) at glucagon receptor” value with glucagon receptor turned out to be 0.035 nM. For the same molecule, the “EC50 (nM) at GLP-1 receptor” value in the assay with GLP-1 receptor was found to be 0.003 nM. The “EC50 (nM) at GIP receptor” value with GIP receptor amounted to 2.36 nM.
Regarding H[Aib]QGTFTSDYSKYLDERRA[Aib]EFVC(40K‑TE PEG″)WLLDT-NH2 [peptide of SEQ ID NO: 14], the “EC50 (nM) at glucagon receptor” value with glucagon receptor worked out at 0.365 nM. Besides, the “EC50 (nM) at GLP-1 receptor” value with GLP-1 receptor stood at 0.076 nM. For the same molecule, in the assay with GIP receptor, the “EC50 (nM) at GIP receptor” value amounted to 33.7 nM.
The matching figures for H[dS]QGTFTSDK([γGlu-Palmitoyl])SKYLDERAAQDFVQWLLDGRK-NH2 [peptide of SEQ ID NO: 28]: 0.015 nM, 0.003 nM and 2.84 nM.

B5: peptide of SEQ ID NO: 33 (peptide)
peptide: H[Aib]QGTFTSDK([γGlu-γGlu-Palmitoyl])SKYLD[Aib]RAAQDFVQWLM[Orn]T[Orn]E-OH
modifications: N-terminus assumed
SMILES: CCCCCCCCCCCCCCCC(=O)N[C@@H](CCC(=O)N[C@@H](CCC(=O)NCCCC[C@H](NC(=O)[C@H](CC(=O)O)NC(=O)[C@H](CO)NC(=O)[C@@H](NC(=O)[C@H](Cc1ccccc1)NC(=O)[C@@H](NC(=O)CNC(=O)[C@H](CCC(N)=O)NC(=O)C(C)(C)NC(=O)[C@@H](N)Cc1c[nH]cn1)[C@@H](C)O)[C@@H](C)O)C(=O)N[C@@H](CO)C(=O)N[C@@H](CCCCN)C(=O)N[C@@H](Cc1ccc(O)cc1)C(=O)N[C@@H](CC(C)C)C(=O)N[C@@H](CC(=O)O)C(=O)NC(C)(C)C(=O)N[C@@H](CCCNC(=N)N)C(=O)N[C@@H](C)C(=O)N[C@@H](C)C(=O)N[C@@H](CCC(N)=O)C(=O)N[C@@H](CC(=O)O)C(=O)N[C@@H](Cc1ccccc1)C(=O)N[C@H](C(=O)N[C@@H](CCC(N)=O)C(=O)N[C@@H](Cc1c[nH]c2ccccc12)C(=O)N[C@@H](CC(C)C)C(=O)N[C@@H](CCSC)C(=O)N[C@@H](CCCN)C(=O)N[C@H](C(=O)N[C@@H](CCCN)C(=O)N[C@@H](CCC(=O)O)C(=O)O)[C@@H](C)O)C(C)C)C(=O)O)C(=O)O
Regarding B5, the “EC50 (nM) at glucagon receptor” value in the assay with glucagon receptor came to 0.023 nM. For the same molecule, in the assay with GLP-1 receptor, the “EC50 (nM) at GLP-1 receptor” value was found to be 0.019 nM. In addition, the “EC50 (nM) at GIP receptor” value with GIP receptor was found to be 3.96 nM.

B6: peptide of SEQ ID NO: 29 (peptide)
peptide: H[Aib]QGTFTSDK([γGlu-γGlu-Palmitoyl])SKYLD[Aib]RAAQDFVQWLL[Aib]GRG-NH2
modifications: N-terminus assumed
SMILES: CCCCCCCCCCCCCCCC(=O)N[C@@H](CCC(=O)N[C@@H](CCC(=O)NCCCC[C@H](NC(=O)[C@H](CC(=O)O)NC(=O)[C@H](CO)NC(=O)[C@@H](NC(=O)[C@H](Cc1ccccc1)NC(=O)[C@@H](NC(=O)CNC(=O)[C@H](CCC(N)=O)NC(=O)C(C)(C)NC(=O)[C@@H](N)Cc1c[nH]cn1)[C@@H](C)O)[C@@H](C)O)C(=O)N[C@@H](CO)C(=O)N[C@@H](CCCCN)C(=O)N[C@@H](Cc1ccc(O)cc1)C(=O)N[C@@H](CC(C)C)C(=O)N[C@@H](CC(=O)O)C(=O)NC(C)(C)C(=O)N[C@@H](CCCNC(=N)N)C(=O)N[C@@H](C)C(=O)N[C@@H](C)C(=O)N[C@@H](CCC(N)=O)C(=O)N[C@@H](CC(=O)O)C(=O)N[C@@H](Cc1ccccc1)C(=O)N[C@H](C(=O)N[C@@H](CCC(N)=O)C(=O)N[C@@H](Cc1c[nH]c2ccccc12)C(=O)N[C@@H](CC(C)C)C(=O)N[C@@H](CC(C)C)C(=O)NC(C)(C)C(=O)NCC(=O)N[C@@H](CCCNC(=N)N)C(=O)NCC(N)=O)C(C)C)C(=O)O)C(=O)O
Consider B6, for which, in the assay with glucagon receptor, the “EC50 (nM) at glucagon receptor” value was 0.014 nM. Besides, in the assay with GLP-1 receptor, the “EC50 (nM) at GLP-1 receptor” value amounted to 0.007 nM. Besides, the “EC50 (nM) at GIP receptor” value with GIP receptor was 1.65 nM.
